Experiment [1] has as its target T1, MALT1 (wild type, Flag- and Avi-tagged bio-construct) (human, UniProt Q9UDY8 1-824, Avi-tag biotinylated in vivo by co-expressed BirA).
T1 construct: also called paracaspase; bio-IP purified MALT1
T1 sequence (looked up): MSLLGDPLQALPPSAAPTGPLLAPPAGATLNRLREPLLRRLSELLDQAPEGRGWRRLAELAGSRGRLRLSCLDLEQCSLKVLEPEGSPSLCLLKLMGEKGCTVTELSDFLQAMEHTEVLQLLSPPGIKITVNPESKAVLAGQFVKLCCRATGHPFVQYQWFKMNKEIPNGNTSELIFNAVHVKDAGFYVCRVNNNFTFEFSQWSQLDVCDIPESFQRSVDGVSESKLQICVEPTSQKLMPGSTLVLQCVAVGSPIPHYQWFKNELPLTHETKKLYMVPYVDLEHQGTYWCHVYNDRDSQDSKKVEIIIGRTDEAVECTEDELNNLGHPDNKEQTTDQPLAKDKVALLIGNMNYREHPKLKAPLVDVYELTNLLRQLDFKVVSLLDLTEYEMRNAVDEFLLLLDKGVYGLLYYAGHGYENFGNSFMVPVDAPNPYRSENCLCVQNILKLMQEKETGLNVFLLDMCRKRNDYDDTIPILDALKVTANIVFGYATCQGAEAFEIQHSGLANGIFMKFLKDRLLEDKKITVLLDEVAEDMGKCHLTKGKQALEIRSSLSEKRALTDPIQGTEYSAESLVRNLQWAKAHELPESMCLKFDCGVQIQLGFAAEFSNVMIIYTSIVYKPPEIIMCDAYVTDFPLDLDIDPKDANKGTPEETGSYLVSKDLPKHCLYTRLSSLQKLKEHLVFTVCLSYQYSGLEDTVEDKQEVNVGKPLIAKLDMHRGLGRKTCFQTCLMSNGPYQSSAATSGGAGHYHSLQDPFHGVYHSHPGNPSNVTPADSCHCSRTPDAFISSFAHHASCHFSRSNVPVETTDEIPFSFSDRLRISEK
Nature of the experiment: bio-IP from HEK293T cells, anti-TRAF6 immunoblot. The text has this: (§1) FIG. 5: p76 activates NFκB via TRAF6. […] Panel B) TRAF6 mediates NFκB signaling by p76. Top: NFκB-reporter assays of HEK293T cells transiently expressing MALT1, p76 and mutants or MALT1-C. Bottom: MALT1, p76 or MALT1-C, transiently expressed in HEK293T cells, were purified via bio-IPs and immunoblotted with anti-MALT1 (to show equal expression), anti-TRAF6 and anti-BCL10. Panel C) p76 induces polyubiquitination of IKKγ. Immunoblot analysis of bio-IP and IKKγ-IP of 293T cells transfected with pcD-F-IKKγ and pcd-HA-Ub in combination with indicated Avi-tagged MALT1 constructs. Panel D) BCL10 is not involved in NFκB signaling by p76. NFκB reporter assays of HEK-293T cells transfected with siRNA duplexes against MALT1, BCL10 or GFP (as control) followed by transient transfection with p76. The expression levels were determined by immunoblot with anti-MALT1 and anti-BCL10. NFκB-dependent luciferase activity […] is shown as fold induction of vector-transfected cells and represents the mean+/−S.D. of three independent experiments.
(§2) NFκB activation by MALT1 requires TRAF6 binding via two distinct sites (19), which are both present in the p76 cleavage fragment. Mutation of one TRAF6 binding site, either E313A/E316A (T6Ig-m) or E806A (T6C-m), abolished the potential of p76 to activate NFκB signaling in 293T cells (FIG. 5, Panel B). […] Furthermore, NFκB activation by p76 in 293T cells was associated with increased polyubiquitination of IKKγ (FIG. 5, Panel C).
(In general: In western blotting, separated proteins are transferred to a membrane and probed.)

Experiment [2] addresses T2, p76 fragment of MALT1 (Avi-tagged expression construct) (human, UniProt Q9UDY8 150-824, Avi-tag biotinylated in vivo by co-expressed BirA).
T2 construct: domain: p76 cleavage fragment; Lacks the N-terminal death domain; also called MALT1 p76; 76 kDa C-terminal fragment
T2 sequence (looked up): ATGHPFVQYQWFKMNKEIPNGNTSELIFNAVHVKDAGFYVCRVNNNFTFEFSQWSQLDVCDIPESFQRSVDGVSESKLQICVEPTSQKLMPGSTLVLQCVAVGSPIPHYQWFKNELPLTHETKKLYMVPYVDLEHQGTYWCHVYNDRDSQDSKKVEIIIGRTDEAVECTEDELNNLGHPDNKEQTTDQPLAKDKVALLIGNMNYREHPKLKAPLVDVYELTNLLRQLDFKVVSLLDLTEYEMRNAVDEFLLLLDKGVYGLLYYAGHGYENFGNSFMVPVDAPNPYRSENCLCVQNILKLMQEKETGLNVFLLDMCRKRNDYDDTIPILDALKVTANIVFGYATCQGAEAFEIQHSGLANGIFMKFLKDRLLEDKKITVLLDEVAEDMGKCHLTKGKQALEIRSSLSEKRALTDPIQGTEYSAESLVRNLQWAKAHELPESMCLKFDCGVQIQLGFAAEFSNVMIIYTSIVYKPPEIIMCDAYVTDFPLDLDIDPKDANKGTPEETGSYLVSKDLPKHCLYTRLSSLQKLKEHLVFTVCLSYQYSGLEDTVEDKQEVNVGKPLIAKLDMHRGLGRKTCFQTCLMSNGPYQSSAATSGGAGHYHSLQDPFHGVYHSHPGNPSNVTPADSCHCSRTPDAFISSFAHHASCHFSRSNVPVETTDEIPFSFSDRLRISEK
Nature of the experiment: bio-IP from HEK293T cells, anti-TRAF6 immunoblot.
From the text: as §1, §2

B1: TRAF6 (other, UniProt Q9Y4K3 1-522, looked up)
chain: MSLLNCENSCGSSQSESDCCVAMASSCSAVTKDDSVGGTASTGNLSSSFMEEIQGYDVEFDPPLESKYECPICLMALREAVQTPCGHRFCKACIIKSIRDAGHKCPVDNEILLENQLFPDNFAKREILSLMVKCPNEGCLHKMELRHLEDHQAHCEFALMDCPQCQRPFQKFHINIHILKDCPRRQVSCDNCAASMAFEDKEIHDQNCPLANVICEYCNTILIREQMPNHYDLDCPTAPIPCTFSTFGCHEKMQRNHLARHLQENTQSHMRMLAQAVHSLSVIPDSGYISEVRNFQETIHQLEGRLVRQDHQIRELTAKMETQSMYVSELKRTIRTLEDKVAEIEAQQCNGIYIWKIGNFGMHLKCQEEEKPVVIHSPGFYTGKPGYKLCMRLHLQLPTAQRCANYISLFVHTMQGEYDSHLPWPFQGTIRLTILDQSEAPVRQNHEEIMDAKPELLAFQRPTIPRNPKGFGYVTFMHLEALRQRTFIKDDTLLVRCEVSTRFDMGSLRREGFQPRSTDAGV
notes: Co-precipitated from lysates of human cell lines
On to B1, for which the binding result in experiment [1] and in experiment [2] was “binds” throughout.

The values above are taken from patent US8309523 (VIB VZW, dated 2012).
